Paper PMC7527988, “Cell-free biogenesis of bacterial division proto-rings that can constrict liposomes” (Communications Biology, 2020)

Target: T1, FtsZ labelled with Alexa Fluor 647 (E. coli, UniProt P0A9A6 1-383, Alexa Fluor 647 label, 0.9 ± 0.2 mol of fluorophore per mol of protein)
T1 construct: FtsZ, Escherichia coli cell division protein; called wild-type in the discussion; The label was added to the polymerised protein; also called FtsZ-A647
T1 sequence (looked up): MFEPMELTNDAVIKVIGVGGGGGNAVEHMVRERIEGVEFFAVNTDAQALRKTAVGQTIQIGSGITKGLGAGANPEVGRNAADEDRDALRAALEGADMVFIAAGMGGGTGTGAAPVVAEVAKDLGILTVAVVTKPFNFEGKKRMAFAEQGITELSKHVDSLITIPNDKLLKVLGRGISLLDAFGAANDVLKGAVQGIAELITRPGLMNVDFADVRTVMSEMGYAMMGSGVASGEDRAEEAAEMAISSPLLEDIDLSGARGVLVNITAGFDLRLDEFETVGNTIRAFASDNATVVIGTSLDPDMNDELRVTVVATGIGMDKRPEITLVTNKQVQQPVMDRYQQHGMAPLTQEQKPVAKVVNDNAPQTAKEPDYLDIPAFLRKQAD
Test: recruitment to a supported lipid bilayer, fluorescence microscopy; 1 µM purified sZipA-A488 first incubated on the SLB with DGS-NTA lipids, washed; 3 µM purified FtsZ-A647 with 2 mM GTP added in minimal reaction buffer or PUREfrex2.0, with 50 g/L Ficoll70 or cell-free synthesized ZapA; spinning disk microscopy at room temperature
Conditions: both partners purified

B1: soluble ZipA labelled with Alexa Fluor 488 (domain or fragment)
chain: not shown
modifications: Alexa Fluor 488 label, 0.9 ± 0.2 mol of fluorophore per mol of protein
notes: Held on the supported lipid bilayer through the His6-tag and DGS-NTA lipids; also called sZipA-A488; sZipA; not shown: His6, N-terminal, kept
  binding result: binds
